{
  "source": "patent US20160272683A1",
  "about": "(Novo Nordisk, published 2016)",
  "binders": {"B1": {"name": "[N-terminal(C18 diacid-gGlu), des1, 4Q, 30S, 31G]mimylin (peptide)", "peptide": "{C18 diacid-γGlu}-ASQLSTAALGRLSAELHELATLPRTETGSGSP-NH2", "SMILES": "CC(C)C[C@H](NC(=O)[C@H](C)NC(=O)[C@H](C)NC(=O)[C@@H](NC(=O)[C@H](CO)NC(=O)[C@H](CC(C)C)NC(=O)[C@H](CCC(N)=O)NC(=O)[C@H](CO)NC(=O)[C@H](C)NC(=O)CC[C@H](NC(=O)CCCCCCCCCCCCCCCCC(=O)O)C(=O)O)[C@@H](C)O)C(=O)NCC(=O)N[C@@H](CCCNC(=N)N)C(=O)N[C@@H](CC(C)C)C(=O)N[C@@H](CO)C(=O)N[C@@H](C)C(=O)N[C@@H](CCC(=O)O)C(=O)N[C@@H](CC(C)C)C(=O)N[C@@H](Cc1c[nH]cn1)C(=O)N[C@@H](CCC(=O)O)C(=O)N[C@@H](CC(C)C)C(=O)N[C@@H](C)C(=O)N[C@H](C(=O)N[C@@H](CC(C)C)C(=O)N1CCC[C@H]1C(=O)N[C@@H](CCCNC(=N)N)C(=O)N[C@H](C(=O)N[C@@H](CCC(=O)O)C(=O)N[C@H](C(=O)NCC(=O)N[C@@H](CO)C(=O)NCC(=O)N[C@@H](CO)C(=O)N1CCC[C@H]1C(N)=O)[C@@H](C)O)[C@@H](C)O)[C@@H](C)O"}, "B2": {"name": "[N-terminal(C20 diacid-gGlu), -1E, 1A, 23Y, 30S, 31G]mimylin (peptide)", "peptide": "{C20 diacid-γGlu}-EAASELSTAALGRLSAELHELATYPRTETGSGSP-NH2", "SMILES": "CC(C)C[C@H](NC(=O)[C@H](C)NC(=O)[C@H](C)NC(=O)[C@@H](NC(=O)[C@H](CO)NC(=O)[C@H](CC(C)C)NC(=O)[C@H](CCC(=O)O)NC(=O)[C@H](CO)NC(=O)[C@H](C)NC(=O)[C@H](C)NC(=O)[C@H](CCC(=O)O)NC(=O)CC[C@H](NC(=O)CCCCCCCCCCCCCCCCCCC(=O)O)C(=O)O)[C@@H](C)O)C(=O)NCC(=O)N[C@@H](CCCNC(=N)N)C(=O)N[C@@H](CC(C)C)C(=O)N[C@@H](CO)C(=O)N[C@@H](C)C(=O)N[C@@H](CCC(=O)O)C(=O)N[C@@H](CC(C)C)C(=O)N[C@@H](Cc1c[nH]cn1)C(=O)N[C@@H](CCC(=O)O)C(=O)N[C@@H](CC(C)C)C(=O)N[C@@H](C)C(=O)N[C@H](C(=O)N[C@@H](Cc1ccc(O)cc1)C(=O)N1CCC[C@H]1C(=O)N[C@@H](CCCNC(=N)N)C(=O)N[C@H](C(=O)N[C@@H](CCC(=O)O)C(=O)N[C@H](C(=O)NCC(=O)N[C@@H](CO)C(=O)NCC(=O)N[C@@H](CO)C(=O)N1CCC[C@H]1C(N)=O)[C@@H](C)O)[C@@H](C)O)[C@@H](C)O"}, "B3": {"name": "[N-terminal(C18 diacid-gGlu), des1, 9V, 30S, 31G]mimylin (peptide)", "peptide": "{C18 diacid-γGlu}-ASELSTAVLGRLSAELHELATLPRTETGSGSP-NH2", "SMILES": "CC(C)C[C@H](NC(=O)[C@H](CCC(=O)O)NC(=O)[C@H](Cc1c[nH]cn1)NC(=O)[C@H](CC(C)C)NC(=O)[C@H](CCC(=O)O)NC(=O)[C@H](C)NC(=O)[C@H](CO)NC(=O)[C@H](CC(C)C)NC(=O)[C@H](CCCNC(=N)N)NC(=O)CNC(=O)[C@H](CC(C)C)NC(=O)[C@@H](NC(=O)[C@H](C)NC(=O)[C@@H](NC(=O)[C@H](CO)NC(=O)[C@H](CC(C)C)NC(=O)[C@H](CCC(=O)O)NC(=O)[C@H](CO)NC(=O)[C@H](C)NC(=O)CC[C@H](NC(=O)CCCCCCCCCCCCCCCCC(=O)O)C(=O)O)[C@@H](C)O)C(C)C)C(=O)N[C@@H](C)C(=O)N[C@H](C(=O)N[C@@H](CC(C)C)C(=O)N1CCC[C@H]1C(=O)N[C@@H](CCCNC(=N)N)C(=O)N[C@H](C(=O)N[C@@H](CCC(=O)O)C(=O)N[C@H](C(=O)NCC(=O)N[C@@H](CO)C(=O)NCC(=O)N[C@@H](CO)C(=O)N1CCC[C@H]1C(N)=O)[C@@H](C)O)[C@@H](C)O)[C@@H](C)O"}, "B4": {"name": "[N-terminal(C18 diacid), 5I, 9I, 10I, 20I]mimylin (peptide)", "peptide": "{C18 diacid}-EASEISTAIIGRLSAELHEIATLPRTETGPESP-NH2", "SMILES": "CC[C@H](C)[C@H](NC(=O)[C@H](C)NC(=O)[C@@H](NC(=O)[C@H](CO)NC(=O)[C@@H](NC(=O)[C@H](CCC(=O)O)NC(=O)[C@H](CO)NC(=O)[C@H](C)NC(=O)[C@H](CCC(=O)O)NC(=O)CCCCCCCCCCCCCCCCC(=O)O)[C@@H](C)CC)[C@@H](C)O)C(=O)N[C@H](C(=O)NCC(=O)N[C@@H](CCCNC(=N)N)C(=O)N[C@@H](CC(C)C)C(=O)N[C@@H](CO)C(=O)N[C@@H](C)C(=O)N[C@@H](CCC(=O)O)C(=O)N[C@@H](CC(C)C)C(=O)N[C@@H](Cc1c[nH]cn1)C(=O)N[C@@H](CCC(=O)O)C(=O)N[C@H](C(=O)N[C@@H](C)C(=O)N[C@H](C(=O)N[C@@H](CC(C)C)C(=O)N1CCC[C@H]1C(=O)N[C@@H](CCCNC(=N)N)C(=O)N[C@H](C(=O)N[C@@H](CCC(=O)O)C(=O)N[C@H](C(=O)NCC(=O)N1CCC[C@H]1C(=O)N[C@@H](CCC(=O)O)C(=O)N[C@@H](CO)C(=O)N1CCC[C@H]1C(N)=O)[C@@H](C)O)[C@@H](C)O)[C@@H](C)O)[C@@H](C)CC)[C@@H](C)CC"}, "B5": {"name": "[N-terminal(C18 diacid-gGlu), des1, 4Q, 16Q, 30S, 31G]mimylin (peptide)", "peptide": "{C18 diacid-γGlu}-ASQLSTAALGRLSAQLHELATLPRTETGSGSP-NH2", "SMILES": "CC(C)C[C@H](NC(=O)[C@H](C)NC(=O)[C@H](C)NC(=O)[C@@H](NC(=O)[C@H](CO)NC(=O)[C@H](CC(C)C)NC(=O)[C@H](CCC(N)=O)NC(=O)[C@H](CO)NC(=O)[C@H](C)NC(=O)CC[C@H](NC(=O)CCCCCCCCCCCCCCCCC(=O)O)C(=O)O)[C@@H](C)O)C(=O)NCC(=O)N[C@@H](CCCNC(=N)N)C(=O)N[C@@H](CC(C)C)C(=O)N[C@@H](CO)C(=O)N[C@@H](C)C(=O)N[C@@H](CCC(N)=O)C(=O)N[C@@H](CC(C)C)C(=O)N[C@@H](Cc1c[nH]cn1)C(=O)N[C@@H](CCC(=O)O)C(=O)N[C@@H](CC(C)C)C(=O)N[C@@H](C)C(=O)N[C@H](C(=O)N[C@@H](CC(C)C)C(=O)N1CCC[C@H]1C(=O)N[C@@H](CCCNC(=N)N)C(=O)N[C@H](C(=O)N[C@@H](CCC(=O)O)C(=O)N[C@H](C(=O)NCC(=O)N[C@@H](CO)C(=O)NCC(=O)N[C@@H](CO)C(=O)N1CCC[C@H]1C(N)=O)[C@@H](C)O)[C@@H](C)O)[C@@H](C)O"}, "B6": {"name": "[N-terminal(C18 diacid-gGlu), des1, 6T, 9V, 30S, 31G]mimylin (peptide)", "peptide": "{C18 diacid-γGlu}-ASELTTAVLGRLSAELHELATLPRTETGSGSP-NH2", "SMILES": "CC(C)C[C@H](NC(=O)[C@H](CCC(=O)O)NC(=O)[C@H](Cc1c[nH]cn1)NC(=O)[C@H](CC(C)C)NC(=O)[C@H](CCC(=O)O)NC(=O)[C@H](C)NC(=O)[C@H](CO)NC(=O)[C@H](CC(C)C)NC(=O)[C@H](CCCNC(=N)N)NC(=O)CNC(=O)[C@H](CC(C)C)NC(=O)[C@@H](NC(=O)[C@H](C)NC(=O)[C@@H](NC(=O)[C@@H](NC(=O)[C@H](CC(C)C)NC(=O)[C@H](CCC(=O)O)NC(=O)[C@H](CO)NC(=O)[C@H](C)NC(=O)CC[C@H](NC(=O)CCCCCCCCCCCCCCCCC(=O)O)C(=O)O)[C@@H](C)O)[C@@H](C)O)C(C)C)C(=O)N[C@@H](C)C(=O)N[C@H](C(=O)N[C@@H](CC(C)C)C(=O)N1CCC[C@H]1C(=O)N[C@@H](CCCNC(=N)N)C(=O)N[C@H](C(=O)N[C@@H](CCC(=O)O)C(=O)N[C@H](C(=O)NCC(=O)N[C@@H](CO)C(=O)NCC(=O)N[C@@H](CO)C(=O)N1CCC[C@H]1C(N)=O)[C@@H](C)O)[C@@H](C)O)[C@@H](C)O"}, "B7": {"name": "[N-terminal(C18 diacid-gGlu), des1, 30S, 31G, 32P]mimylin (peptide)", "peptide": "{C18 diacid-γGlu}-ASELSTAALGRLSAELHELATLPRTETGSGPP-NH2", "SMILES": "CC(C)C[C@H](NC(=O)[C@H](C)NC(=O)[C@H](C)NC(=O)[C@@H](NC(=O)[C@H](CO)NC(=O)[C@H](CC(C)C)NC(=O)[C@H](CCC(=O)O)NC(=O)[C@H](CO)NC(=O)[C@H](C)NC(=O)CC[C@H](NC(=O)CCCCCCCCCCCCCCCCC(=O)O)C(=O)O)[C@@H](C)O)C(=O)NCC(=O)N[C@@H](CCCNC(=N)N)C(=O)N[C@@H](CC(C)C)C(=O)N[C@@H](CO)C(=O)N[C@@H](C)C(=O)N[C@@H](CCC(=O)O)C(=O)N[C@@H](CC(C)C)C(=O)N[C@@H](Cc1c[nH]cn1)C(=O)N[C@@H](CCC(=O)O)C(=O)N[C@@H](CC(C)C)C(=O)N[C@@H](C)C(=O)N[C@H](C(=O)N[C@@H](CC(C)C)C(=O)N1CCC[C@H]1C(=O)N[C@@H](CCCNC(=N)N)C(=O)N[C@H](C(=O)N[C@@H](CCC(=O)O)C(=O)N[C@H](C(=O)NCC(=O)N[C@@H](CO)C(=O)NCC(=O)N1CCC[C@H]1C(=O)N1CCC[C@H]1C(N)=O)[C@@H](C)O)[C@@H](C)O)[C@@H](C)O"}},
  "note": "Numbered stars: 1 amine (or outer) side, 2 acyl side, 3 side chain; on linkers, the order of the positions; unused ones are H or OH. * marks the point of attachment. C20 diacid = O=C(O)CCCCCCCCCCCCCCCCCCC(=O)*; C18 diacid = O=C(O)CCCCCCCCCCCCCCCCC(=O)*; γGlu = O=C(O)[C@H](CCC(=O)[*:2])N[*:1]",
  "data": [
    {"target": "T1, human amylin receptor (human calcitonin receptor + human RAMP3) (human) (UniProt P30988)", "T1 sequence (looked up) 1": "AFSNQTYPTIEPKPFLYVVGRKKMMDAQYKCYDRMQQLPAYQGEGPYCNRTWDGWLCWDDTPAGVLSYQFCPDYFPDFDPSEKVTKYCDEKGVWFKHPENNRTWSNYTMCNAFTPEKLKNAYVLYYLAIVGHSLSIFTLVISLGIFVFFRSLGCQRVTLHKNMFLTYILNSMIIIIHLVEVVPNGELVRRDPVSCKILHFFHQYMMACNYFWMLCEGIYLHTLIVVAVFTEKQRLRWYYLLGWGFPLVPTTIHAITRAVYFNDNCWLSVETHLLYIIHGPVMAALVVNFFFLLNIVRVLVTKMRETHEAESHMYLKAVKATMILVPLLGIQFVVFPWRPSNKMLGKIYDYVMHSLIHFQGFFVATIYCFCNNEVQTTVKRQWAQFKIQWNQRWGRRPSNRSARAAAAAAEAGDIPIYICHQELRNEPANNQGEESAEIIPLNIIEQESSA", "T1 sequence (looked up) 2": "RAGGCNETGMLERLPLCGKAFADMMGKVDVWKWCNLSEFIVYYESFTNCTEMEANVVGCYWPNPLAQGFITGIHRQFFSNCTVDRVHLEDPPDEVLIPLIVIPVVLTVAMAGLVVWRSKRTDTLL", "experiment": "whole-cell competition vs 125I-rat amylin (Assay Va)", "units": {"IC50": "nM"}, "values": [
      {"binder": "B1", "IC50": 0.587},
      {"binder": "B2", "IC50": 1.92},
      {"binder": "B3", "IC50": 0.764},
      {"binder": "B4", "IC50": 0.998},
      {"binder": "B5", "IC50": 0.428},
      {"binder": "{C18 diacid-γGlu}-ASEVSTAVLGRLSAELHELATLPRTETGSGSP-NH2", "note": "[[N-terminal(C18 diacid-gGlu), des1, 5V, 9V, 30S, 31G]mimylin]", "IC50": 0.812},
      {"binder": "B6", "IC50": 0.653},
      {"binder": "B7", "IC50": 22},
      {"binder": "{C20 diacid-γGlu}-ASELSTAALGRLSAELHELATYPRTETGSGSY-OH", "note": "[[N-terminal(C20 diacid-gGlu), des1, 23Y, 30S, 31G, 33Y, C-terminal(-)]mimylin]", "IC50": 92},
      {"binder": "{C20 diacid-γGlu}-ASGLSTAALGRLSAELHELATYPRTETGSGSP-NH2", "note": "[[N-terminal(C20 diacid-gGlu), des1, 4G, 23Y, 30S, 31G]mimylin]", "IC50": 0.111}
    ]}
  ]
}
